Test results taken from PMC3215713, “Probing the Limits of Aptamer Affinity with a Microfluidic SELEX Platform”.

B1: ApoE-06 (Ahmad 2011) (ssDNA)
DNA: AGCAGCACAGAGGTCAGATGACTAGCTACGGGGTGGGTGGGCGGTGTCAGTTTGTTTATTGGTGCTATACATCCTCTATACCTATGCGTGCTACCGTGAA
B2: Thr-08 (ssDNA)
DNA: AGCAGCACAGAGGTCAGATGCAGCGCTAGGGCTTTTAGCGTAATGGGTAGGGTGGTGCGGTGCAGATATCGGAATTGGTGCCTATGCGTGCTACCGTGAA
B3: PDGF-09 (ssDNA)
DNA: AGCAGCACAGAGGTCAGATGGAATCATGATCCCCCATGACCTGGGGGCGTTACTGGCGAGCATCATGAGAGATCGTGCGACCTATGCGTGCTACCGTGAA

Tests used:
thrombin = thrombin (UniProt P00734;P00734 315-363;364-622); assay: bead-based fluorescence; PDGF-BB and ApoE: PBS pH 7.4, 1 mM MgCl2, 0.025% Tween 20; thrombin: 50 mM Tris pH 7.5, 100 mM NaCl, 1 mM MgCl2, 5 mM KCl, 1 mM CaCl2, 0.025% Tween 20; 1 h, roo
Bovine serum albumin [1] = target: T1, Bovine serum albumin (Bos taurus (Bovine), UniProt P02769 25-607); assay: pulldown; PBS pH 7.4, 1 mM MgCl2, 0.025% Tween 20, RT; settings: label: 5'-Alexa Fluor 488
Bovine serum albumin [2] = target: T1, Bovine serum albumin; assay: pulldown; 50 mM Tris pH 7.5, 100 mM NaCl, 1 mM MgCl2, 5 mM KCl, 1 mM CaCl2, 0.025% Tween 20, RT; settings: label: 5'-Alexa Fluor 488
[3] = target: PDGF-BB (platelet-derived growth factor BB) (UniProt P01127 82-190); assay: bead-based fluorescence; PDGF-BB and ApoE: PBS pH 7.4, 1 mM MgCl2, 0.025% Tween 20; thrombin: 50 mM Tris pH 7.5, 100 mM NaCl, 1 mM MgCl2, 5 mM KCl, 1 mM CaCl2, 0.025% Tween 20; 1 h, room temperature; settings: protein: commercial; chain copies: 2; label: 5'-FAM
Chain of PDGF-BB (platelet-derived growth factor BB) (P01127 82-190): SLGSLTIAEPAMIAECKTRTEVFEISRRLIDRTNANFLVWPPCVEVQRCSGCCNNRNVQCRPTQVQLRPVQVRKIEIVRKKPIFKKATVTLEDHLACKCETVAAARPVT

T1 sequence (P02769 25-607): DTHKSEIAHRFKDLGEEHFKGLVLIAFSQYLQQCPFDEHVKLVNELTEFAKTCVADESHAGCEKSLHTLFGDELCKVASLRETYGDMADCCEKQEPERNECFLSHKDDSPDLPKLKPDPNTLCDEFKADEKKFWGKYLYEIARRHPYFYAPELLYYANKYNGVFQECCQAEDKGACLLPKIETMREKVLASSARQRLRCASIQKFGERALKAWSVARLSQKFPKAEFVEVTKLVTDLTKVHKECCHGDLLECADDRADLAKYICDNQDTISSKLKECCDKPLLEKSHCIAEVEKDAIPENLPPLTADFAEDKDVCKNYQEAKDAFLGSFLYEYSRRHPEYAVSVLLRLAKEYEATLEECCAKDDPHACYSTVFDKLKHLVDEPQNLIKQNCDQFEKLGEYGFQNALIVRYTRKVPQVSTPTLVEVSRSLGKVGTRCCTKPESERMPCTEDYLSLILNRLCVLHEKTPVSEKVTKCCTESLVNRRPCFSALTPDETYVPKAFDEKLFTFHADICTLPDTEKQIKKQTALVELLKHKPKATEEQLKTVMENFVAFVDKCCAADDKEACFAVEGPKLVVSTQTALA

| Binder | Kd (thrombin) [nM] | binding result (Bovine serum albumin [1]) | further results |
| --- | --- | --- | --- |
| GGTTGGTGTGGTTGG (ssDNA) [Bock thrombin aptamer (consensus 15-mer)] | 1.2 | – | – |
| B1 | – | no binding | – |
| B2 | – | – | binding result (Bovine serum albumin [2]): no binding |
| AGTCCGTGGTAGGGCAGGTTGGGGTGACT (ssDNA) [Tasset thrombin aptamer 60-18[29]] | 11.9 | – | – |
| B3 | – | no binding | – |
| CACAGGCTACGGCACGTAGAGCATCACCATGATCCTGTG (ssDNA) [Green PDGF aptamer 36t] | – | – | Kd [3]: 0.12 nM |
